Laboratory results taken from paper PMC10397247.

Legend:
Assay in all cases: two-hybrid library CCNG1;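 further: natural log of median RNA to DNA barcode read ratio; higher means stronger binding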
[1] = target: T1, O15-bS
T1 chain: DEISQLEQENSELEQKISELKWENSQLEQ

[2] = target: T2, O3-bS
T2 chain: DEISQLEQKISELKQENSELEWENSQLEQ

[3] = target: T3, O8-bS
T3 chain: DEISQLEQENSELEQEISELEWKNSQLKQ

[4] = target: T4, O9-bS
T4 chain: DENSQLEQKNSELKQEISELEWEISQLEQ

[5] = target: T5, O6-bS
T5 chain: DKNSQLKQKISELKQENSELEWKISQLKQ

[6] = target: T6, O7-bS
T6 chain: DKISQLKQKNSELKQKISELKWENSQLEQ

[7] = target: T7, O2-bS
T7 chain: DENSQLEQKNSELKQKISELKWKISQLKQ

[8] = target: T8, O4-bS
T8 chain: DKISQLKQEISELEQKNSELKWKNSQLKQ

[9] = target: T9, O5-bS
T9 chain: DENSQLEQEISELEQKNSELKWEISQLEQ

[10] = target: T10, O12-bS
T10 chain: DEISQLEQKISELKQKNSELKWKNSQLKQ

[11] = target: T11, O14-bS
T11 chain: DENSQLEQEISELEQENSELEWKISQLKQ

[12] = target: T12, O16-bS
T12 chain: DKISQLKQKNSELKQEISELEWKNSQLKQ

[13] = target: T13, O13-bS
T13 chain: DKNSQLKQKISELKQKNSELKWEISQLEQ

[14] = target: T14, O6-bP
T14 chain: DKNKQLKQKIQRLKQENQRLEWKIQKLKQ

[15] = target: T15, O5-bP
T15 chain: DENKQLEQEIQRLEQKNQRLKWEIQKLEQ

[16] = target: T16, O7-bP
T16 chain: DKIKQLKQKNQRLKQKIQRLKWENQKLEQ

[17] = target: T17, O2-bP
T17 chain: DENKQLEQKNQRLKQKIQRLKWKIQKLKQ

[18] = target: T18, O8-bP
T18 chain: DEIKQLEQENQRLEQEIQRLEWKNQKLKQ

[19] = target: T19, O14-bP
T19 chain: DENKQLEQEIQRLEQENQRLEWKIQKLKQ

[20] = target: T20, O3-bP
T20 chain: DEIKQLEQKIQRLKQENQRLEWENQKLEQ

[21] = target: T21, O16-bP
T21 chain: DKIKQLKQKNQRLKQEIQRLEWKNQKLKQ

[22] = target: T22, O12-bP
T22 chain: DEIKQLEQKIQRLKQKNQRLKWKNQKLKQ

[23] = target: T23, O4-bP
T23 chain: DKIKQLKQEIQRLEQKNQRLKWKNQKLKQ

[24] = target: T24, O15-bP
T24 chain: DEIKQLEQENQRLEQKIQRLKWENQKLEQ

[25] = target: T25, O13-bP
T25 chain: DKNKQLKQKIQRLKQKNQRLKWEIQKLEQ

[26] = target: T26, O9-bP
T26 chain: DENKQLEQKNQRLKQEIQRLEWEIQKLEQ

Binder: DEISQLEQKISELKQKNSELKWKNSQLKQ [O12-bS]
- interaction score [1]: -0.445
- interaction score [2]: 0.395
- interaction score [3]: -0.862
- interaction score [4]: -0.617
- interaction score [5]: -0.702
- interaction score [6]: -0.726
- interaction score [7]: -0.108
- interaction score [8]: -0.445
- interaction score [9]: -1.66
- interaction score [10]: -0.402
- interaction score [11]: -2.32
- interaction score [12]: -1.04
- interaction score [13]: -2.21

Binder: DEIKQLEQKIQRLKQKNQRLKWKNQKLKQ [O12-bP]
- interaction score [14]: -1.02
- interaction score [15]: -0.621
- interaction score [16]: -0.715
- interaction score [17]: -1.14
- interaction score [18]: -1.25
- interaction score [19]: -0.196
- interaction score [20]: -1.45
- interaction score [21]: -0.648
- interaction score [22]: -0.0984
- interaction score [23]: 0.355
- interaction score [24]: -0.827
- interaction score [25]: -0.964
- interaction score [26]: 0.055
